The test concerns the target human BTLA (wild-type) on cells (human) (UniProt Q7Z6A9). The experiment in a line: cell-based or functional assay.

Chain of human BTLA (wild-type) on cells (human) (Q7Z6A9 31-289): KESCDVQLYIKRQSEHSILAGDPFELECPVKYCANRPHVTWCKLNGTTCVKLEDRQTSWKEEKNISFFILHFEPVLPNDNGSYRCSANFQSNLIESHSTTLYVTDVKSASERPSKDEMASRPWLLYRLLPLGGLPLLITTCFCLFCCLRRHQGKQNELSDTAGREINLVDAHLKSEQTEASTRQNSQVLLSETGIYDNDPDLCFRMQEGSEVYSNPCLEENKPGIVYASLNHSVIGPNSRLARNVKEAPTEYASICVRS

As for human CMV UL144-Fc (Fc fusion), the ERK1/2 phosphorylation, control JTAg cells activated with co-immobilized anti-CD3 and Fc protein lay within 50 to 70 % reduction; the ZAP70/Syk phosphorylation, JTAg cells with ectopic BTLA was in the range of 15 to 25%; the phosphorylation of ERK, Akt and cellular phosphotyrosines, BJAB cells activated with co-immobilized anti-IgM and titrated Fc protein worked out at 50 % reduction.
